Data: publication PMC4251995

Experiments:
[1] = biological target: Phosphorylated DesR wild type, full-length (Bacillus subtilis) (UniProt O34723); assay: SEC
[2] = biological target: Phosphorylated DesR wild type, full-length (Bacillus subtilis) (UniProt O34723); assay: SAXS

## Phosphorylated DesR wild type, full-length (from UniProt O34723 1-199) (natural protein)
[1]
  stoichiometry N: 2
[2]
  stoichiometry N: 2
